B1: Azurin, P00282 (parent)
chain: MLRKLAAVSLLSLLSAPLLAAECSVDIQGNDQMQFNTNAITVDKSCKQFTVNLSHPGNLPKNVMGHNWVLSTAADMQGVVTDGMASGLDKDYLKPDDSRVIAHTKLIGSGEKDSVTFDVSKLKEGEQYMFFCTFPGHSALMKGTLTLK

Variants of B1 are the subject of the data set. The conditions noted are these: Pseudomonas aeruginosa (strain ATCC 15692 / DSM 22644 / CIP 104116 / JCM 14847 / LMG 12228 / 1C / PRS 101 / PAO1); pH 7.2; 20 °C; GdnHCl; CD + Fluorescence; Tris-HCl 50 mM; reversible: yes; structure 5AZU; whole UniProt chain shown.

Where “and” joins values, the source holds several entries; their conditions need not be identical. Equal values may be shown once.

Take I27S: the “ddG of mutation (higher = less stable)” value was 3.6 kcal/mol and 3 kcal/mol; the denaturant m value is 3.6 kcal/mol/M and 3.4 kcal/mol/M; the “denaturant midpoint (higher = more stable)” value was 1.61 M and 1.02 M; the unfolding free energy was 5.8 kcal/mol and 3.4 kcal/mol.

F130S: the “ddG of mutation (higher = less stable)” value is 4.6 kcal/mol and 3.7 kcal/mol; the denaturant m value was 3.6 kcal/mol/M and 3.2 kcal/mol/M; the “denaturant midpoint (higher = more stable)” value is 1.24 M and 0.86 M; the unfolding free energy is 4.8 kcal/mol and 2.7 kcal/mol.

Source of the values: FireProtDB (doi:10.1046/j.1432-1327.1999.00751.x).
